Assay results published in PMC4600444.

Target: Xis2d protein of CTnDOT (Bacteroides spp. (conjugative transposon CTnDOT))
Assay: SEC

Question: “Xis2d protein of CTnDOT (natural protein)” was tested. Which stoichiometry N did it give?
Answer: Its stoichiometry N is 2.
